Laboratory results: PMC8489928 (mAbs, 2021)

How the values were obtained:
[1] = biological target: Human CD96 D1 (human) (UniProt P40200); test: SEC-MALS
[2] = biological target: Mouse CD96 D1 (mouse) (UniProt Q3U0X8); test: SEC-MALS
[3] = biological target: the molecule itself; test: SEC-MALS
[4] = biological target: T1, Mouse CD96 D1 (mouse, UniProt Q3U0X8); test: SPR
[5] = biological target: T1, Mouse CD96 D1; test: SEC-MALS

Molecule: Human CD155 (from UniProt P15151 21-417) (ligand)
- stoichiometry N [1]: 1

Molecule: Mouse CD155 (ligand)
- stoichiometry N [2]: 1

B1: Human CD96 D1 (domain or fragment, UniProt P40200 22-140, looked up)
chain: VWEKTVNTEENVYATLGSDVNLTCQTQTVGFFVQMQWSKVTNKIDLIAVYHPQYGFYCAYGRPCESLVTFTETPENGSKWTLHLRNMSCSVSGRYECMLVLYPEGIQTKIYNLLIQTHV
- stoichiometry N [3]: 2

B2: mCD96-A heavy-chain G56K (Fab, V domains shown)
VH: QVQLKESGPGLVQPSQTLSLTCTVSGLSLTTNSVSWIRQPPGKGLEWMGVIWSNGKTDYNSDIKSRLSISRDTSKSQVFLKMNSLQTEDTAMYFCARNFPYPGINFDWGQGVMVTVSS
VL: QAVVTQESALTTLPGGTVTLTCHSSTGAVTTSNYANWIQEKADHSFTAILGGTSNRAPGTPARFSGSLLEGKAALTITGAQVEDEATYFCSLWYSGHLIFGGGTKLTVK
- binding result [4]: binds

B3: mCD96-A heavy-chain F101M (Fab, V domains shown)
VH: QVQLKESGPGLVQPSQTLSLTCTVSGLSLTTNSVSWIRQPPGKGLEWMGVIWSNGGTDYNSDIKSRLSISRDTSKSQVFLKMNSLQTEDTAMYFCARNFPYPGINMDWGQGVMVTVSS
VL: QAVVTQESALTTLPGGTVTLTCHSSTGAVTTSNYANWIQEKADHSFTAILGGTSNRAPGTPARFSGSLLEGKAALTITGAQVEDEATYFCSLWYSGHLIFGGGTKLTVK
- binding result [4]: binds

B4: mCD96-A light-chain G50H (Fab, V domains shown)
VH: QVQLKESGPGLVQPSQTLSLTCTVSGLSLTTNSVSWIRQPPGKGLEWMGVIWSNGGTDYNSDIKSRLSISRDTSKSQVFLKMNSLQTEDTAMYFCARNFPYPGINFDWGQGVMVTVSS
VL: QAVVTQESALTTLPGGTVTLTCHSSTGAVTTSNYANWIQEKADHSFTAILGHTSNRAPGTPARFSGSLLEGKAALTITGAQVEDEATYFCSLWYSGHLIFGGGTKLTVK
- binding result [4]: binds

B5: mCD96-A-7 Fab (Fab, V domains shown)
VH: QVQLKESGPGLVQPSQTLSLTCTVSGLSLTTNSVSWIRQPPGKGLEWMGVIWSNGKTDYNSDIKSRLSISRDTSKSQVFLKMNSLQTEDTAMYFCARNFPYPGINMDWGQGVMVTVSS
VL: QAVVTQESALTTLPGGTVTLTCHSSTGAVTTSNYANWIQEKADHSFTAILGHTSNRAPGTPARFSGSLLEGKAALTITGAQVEDEATYFCSLWYSGHLIFGGGTKLTVK
- stoichiometry N [5]: 1

B6: mCD96-A Fab (Fab, V domains shown)
VH: QVQLKESGPGLVQPSQTLSLTCTVSGLSLTTNSVSWIRQPPGKGLEWMGVIWSNGGTDYNSDIKSRLSISRDTSKSQVFLKMNSLQTEDTAMYFCARNFPYPGINFDWGQGVMVTVSS
VL: QAVVTQESALTTLPGGTVTLTCHSSTGAVTTSNYANWIQEKADHSFTAILGGTSNRAPGTPARFSGSLLEGKAALTITGAQVEDEATYFCSLWYSGHLIFGGGTKLTVK
- stoichiometry N [5]: 1

B7: Mouse CD96 D1-D3 (domain or fragment, UniProt Q3U0X8 22-536, looked up)
chain: VWEELFNVGDDVYALPGSDINLTCQTKEKNFLVQMQWSKVTDKNDMIALYHPQYGLYCGQEHACESQVAATETEKGVTNWTLYLRNISSALGGKYECIFTLYPEGIKTTVYNLIVEPYTQDEHNYTIEIETNRTLEIPCFQNTSSEIPPRFTFSWLVEKDGVEEVLFTHHHHVNNSTSFKGRIRLGGDYRLHLSPVQIQDDGRTFSCHLTVNPLKAWKMSTTVKVFAKPEILMTVENSTMDVLGERVFTCLLKNVFPKANITWFIDGRFLQGNEEGIYITNEEKNCSSGFWELKSVLTRMHSGPSQSNNMTAWCMALSPGPRNKMWNTSSQPITVSFDSVIAPTKHLPTVTGSTLGTQPFSDAGVSPTGYLATPSVTIVDENGLTPDATPQTSNSSMTTKDGNYLEASSGTDAKNSSRAAASSKSGSWPFPFTSPPEWHSLPGTSTGPQEPDSPVSWIPSEVHTSAPLDASLAPHDTIISTTTEFPNVLTTANGTTKIDHGPITSIIVNQPSDGM
- stoichiometry N [3]: 2

B8: Human CD96 D1-D3 (domain or fragment, UniProt P40200 22-519, looked up)
chain: VWEKTVNTEENVYATLGSDVNLTCQTQTVGFFVQMQWSKVTNKIDLIAVYHPQYGFYCAYGRPCESLVTFTETPENGSKWTLHLRNMSCSVSGRYECMLVLYPEGIQTKIYNLLIQTHVTADEWNSNHTIEIEINQTLEIPCFQNSSSKISSEFTYAWSVENSSTDSWVLLSKGIKEDNGTQETLISQNHLISNSTLLKDRVKLGTDYRLHLSPVQIFDDGRKFSCHIRVGPNKILRSSTTVKVFAKPEIPVIVENNSTDVLVERRFTCLLKNVFPKANITWFIDGSFLHDEKEGIYITNEERKGKDGFLELKSVLTRVHSNKPAQSDNLTIWCMALSPVPGNKVWNISSEKITFLLGSEISSTDPPLSVTESTLDTQPSPASSVSPARYPATSSVTLVDVSALRPNTTPQPSNSSMTTRGFNYPWTSSGTDTKKSVSRIPSETYSSSPSGAGSTLHDNVFTSTARAFSEVPTTANGSTKTNHVHITGIVVNKPKDGM
- stoichiometry N [3]: 2

B9: Mouse CD96 D1 (domain or fragment, UniProt Q3U0X8 22-134, looked up)
chain: VWEELFNVGDDVYALPGSDINLTCQTKEKNFLVQMQWSKVTDKNDMIALYHPQYGLYCGQEHACESQVAATETEKGVTNWTLYLRNISSALGGKYECIFTLYPEGIKTTVYNL
- stoichiometry N [3]: 2
